Measured values: the DeepSol protein solubility set

Experiment: soluble on expression in E. coli; label from the status in PepcDB or PDB records

Sequence | soluble on expression in E. coli
MAHHHHHHMLKECDFFSDSYGCIITKSIGYQAPFPLVRLSNGRSTKIPDGACVQGACFVSFGADHTGSRGRLLTMDVSARASSVSFLQLLSSSCPPVTLEPEVEYVSKIETTETASAVVTRGGGNRWSTSVYVQGEDVPDTAYSRRVHFHRASVASLFGFSLWLMEVAKDDYGAQAVHRYSLSTALTGGVSESTLVSANLGRPLDIIALSEDTALVLGTNGVAMADRRQRASDILFFSNLLNGGATGDRQLLTFGEDYTLRAYDLRDVSAPLFQATSATYLRIKSEIDTRASLLVTSDITGVFDVLHVTTVASLQHSGDTVLDAAVLPSRHNGVRVCTSTGSGMIYDWTVT | not soluble
MSDPRYQIDVSVVTRYLKEQSDPENSRFAFAYTITVQNNGSLSAKLLSRHWLITNGDGEVEEVRGAGVVGQQPNIDPGQSHTYSSGAVISTRVGTMQGSYQMFAEDGKRFDAEIAPFRLAVPGALHLEHHHHHH | soluble
ETTSSIGEKVWDDKDNQDGKRPEKVSVNLLANGEKVKTLDVTSETNWKYEFKDLPKYDEGKKIEYTVTEDHVKDYTTDINGTTITNKYTPGETSATVTKNWDDNNNQDGKRPTEIKVELYQDGKATGKTAILNESNNWTHTWTGLDEKAKGQQVKYTVEELTKVKGYTTHVDNNDMGNLITTNKYTPETTSSIGEKVWDDKDNQDGKRPEKVSVNLLANGEKVKTLDVTSETNWKYEFKDLPKYDEGKKIEYTVTEDHVKDYTTDINGTTITNKYTPGETSATVTKNWDDNNNQDGKRPTEIKVELYQDGKATGKTAILNESNNWTHTWTGLDEKAKGQQVKYTVEELTKVKGYTTHVDNNDMGNLITTNKYT | soluble
TPQSITRKVARYIPGTVEHLQEQQQYARKIRDVTAQKVDQFSNVFHALSESFATFYQASDEQTDDSEVDLFLSKITEHSCQTCYKKNRCWVQNFDKTYDLMKQVMLETEEKEYASNRRLKKEFQQYCSKSKQVEELIEDELAHHHAHLTLKKKVQDSRRLVAEQLLGVSEVMADFSREIKREREQHFLQEEQIIEALQHFGIEIQHVEIYSLEQGNIDIEMTIPFSGHGESEKIIAPMLSDILEEQILVKAEQHSPHPNGYSHVAFGSTKSYRVSTGAAHAAKGGGLVSGDSYSMMELGARKYAAAISDGMGNGARAHFESNETIKLLEKILESGIDEKIAIKTINSILSLRTTDEIYSTLDLSIIDLQDASCKFLKVGSTPSFIKRGDQVMKVQASNLPIGIINEFDVEVVSEQLKAGDLLIMMSDGIFEGPKHVENHDLWMKRKMKGLKTNDPQEIADLLMEEVIRTRSGQIEDDMTVVVVRIDHNTPKWASIPVPAIFQNKQEI | not soluble
MNTDKQVYPLYYEAKNDKVRKRLGIKGGFYWAEAKKLSIAISRGAVAIDDAGYDEDDFKKPVRVNLPVVDDLPPEGVFDTEFCNRYEKGGEDGITMVFIASSPSVQDKPASTDNTNVNGEDMTEIEENMLLPVSGQELPIRWLAQHGSEKPVTHVSRDELQALHIARDEELPAVTALAVSHKTSLLDPLEIRDLHKLVRDTDRVFPNPGNSSLGLMTAFFEAYMDADYTDRGLLTKEWMKGNRVSRITRTASGANAGGGNLTDRGEGFVHDLTSLARDVATGVLARSMDVDIYNLHPAHAKRVEEIIAENKPPFSVFRDKFITMPGGMDYSRAIVVASVKEAPIGIEVIPAHVTEYLNKVLTETDHANPDPEIVDIACGRSSAPMPQRVTEEGKQDDEEKTQPSGAMADEQATAETMEPDATEHHQNTQPLDAQSQVNSVDEKYQELRAELHEARKNIPPKNPVDADKLLAALR | not soluble
MKTGDKAGAIAAAQYFVEVIEYSMHTSTTDLLEKYSYEHCDRCSHYIEVINTRQEKNVLPKSVVINSSQEGHPEFRGEGAIIWRVPMHLQISEQWEAGKEPRKEEVKVSFSVAIDNGHWVLVGVGEED | not soluble
MSLKITNVEAVALDVPIMVRHRKDPFVRQCNLVRIDTDSGISGYGYTSPGEWHSTAAKVVNDMFRDVLIGQNPCKINSVISSLSTRFNRHRATGAWASAVSMVDIGLWDLLGKLYGVPTSVLLGGARTEVPVYITFGLAEYSTEELVDTVSHLVDEGHTRFKMIVGGLRSRPITREESLRPGGSHWFQGFTEDLLLNDVKRVAAVREAIGPDKGLMVDGNGAFPLGEAKRLAQNLEPFNLIWFEEPVLGNDPDLLQRLRDQTTVPIAAGQNIGSLAAHRTLIESKSYDICQLNVTHCGGYSEALKIAHLAEAHNMPIATGGAQPHHNMHFHAGVQNGGLVEFHWLSWKVGEALFVDPPAPRNGFVSLTDEPGLGLEVRPDAIEKFRVEGHHHHHH | soluble
MPAVESNMFPLGKQAPPFALTNVIDGNVVRLEDVKSDVATVIMFICNHCPFVKHVQHELVRLANDYMPKGVSFVAINSNDAEQYPEDSPENMKKVAKELGYPFPYLYDETQEVAKAYDAACTPDFYIFDRELKCVYRGQLDDSRPNNGIPVTGESIRAALDALLEGRPVPEKQKPSIGCSIKWKPSA | not soluble
GVWRQYASRALQELGAGKRAIHDVADLTRGSLRIAVTPTFTSYFIGPLMADFYARYPSITLQLQEMSQEKIEDMLCRDELDVGIAFAPVHSPELEAIPLLTESLALVVAQHHPLAVHEQVALSRLHDEKLVLLSAEFATREQIDHYCEKAGLHPQVVIEANSISAVLELIRRTSLSTLLPAAIATQHDGLKAISLAPPLLERTAVLLRRKNSWQTAAAKAFLHMALDKCAVVGGNESR | soluble
MAHHHHHHMVLHIYHAAVGEKEFQFSTNINKLTQETYELDVNEAIEEVSSTILEQLTGEDALCCECKAAPATRLIHHTMLFAETFPPRVEDLPQPVCNSANCEAVAKSRYLMDMEDATTAQGMPSPNGCFHCHKGARGAATVPLQRCSRCKVAKYCSVECQKADWKVHKQVCAPG | not soluble
MFSAKKLSPADKLKNISSMLEEIVEDTTVPRNIRAAADNAKNALHNEEQELIVRSATAIQYLDDISEDPNMPIHTRTQIWGIVSELETIKN | not soluble
MGSDKIHHHHHHMKSRFYRPLSLASVSPSYFPEIALYVRNSGNYILYKNHDRQFTEEDRHRLERTNTSFLYVRSGDMDAVTEYLEQNLDTLLARDDIDSNAKGTILYQTAANYVTDVFDEPGKTADIIRCRSLIRHLMKYVAGHEDALKALQAITSQNYYIFTHSVQVAALMMLVHDRLFRLNQDEMIDVGIGSLLHDVGMVFLSGQLLDKPDALAAIEYHKAKQHAQKGYEHLQSAGTLSEVSLTIVRHHHEKYDGSGYPAGLKGDDIPRSAQLAALCDTYCAMTTDRPKHTALPGAEALRIMEDEVGGAFSPDLFYRFADVVKGKGKA | not soluble
MGTLLIDVDGTVVDSYPGIREAFIHSMTSVGIPVPEESWLRRIPGPPMVETMRALGQSDSVTAAALACFRQQYDQISWRNSQLFDGWHDALSEWRSQGIRLFTATSKNEHLARLTLEYLGVADLFDFIGGADPTVGRETKADVIAYVLATTETSEHSPILMVGDRSHDTEGAAAFGIPTMLVTWGYGNEQEWSHADYHARNMAEAKGIVRDFFN | not soluble
AALVSISVSPTNSTVAKGLQENFKATGIFTDNSNSDITDQVTWDSSNTDILSISNASDSHGLASTLNQGNVKVTASIGGIQGSTDFKVTQAALTSIEVSPTRTSIAKGLTQKFTAIGIFTDNSKKDITDQVTWNSSSAIVSVSNLDNNKGLGKTNSVGNTTITATLGKVSGNTWFTVVPAVLTSIQINPVNPSLAKGLTQKFTATGIYSDNSNKDITSAVTWFSSDSSIATISNAQKNQGNAYGAATGATDIKATFGKVSSPVSTLSVTAAKLVEIQITPAAASKAKGLTERFKATGIFTDNSNSDITNQVTWNSSNTDIAEIKNTSGSKGITNTLTPGSSEISAALGSIKSSKVILKV | not soluble
MSMSSMSSPSSAVCSPDHFSPSDHLCYVQCNFCQTILAVNVPYTSLFKTVTVRCGCCTNLLSVNMRSYVLPASNQLQLQLGPHSYFNPQDILEELRDAPSNMNMMMMNQHPTMNDIPSFMDLHQQHEIPKAPPVNRPPEKRQRVPSAYNRFIKEEIQRIKAGNPDISHREAFSAAAKNWAHFPHIHFGLVPDNQPVKKTNMPQQEGEDNMVMKEGFYAPAAANVGVTPY | soluble
MSLTQFASPVLHSLLDTDAYKLHMQQAVFHHYYDVHVAAEFRCRGDDLLGIYADAIREQVQAMQHLRLQDDEYQWLSALPFFKADYLNWLREFRFNPEQVTVSNDNGKLDIRLSGPWREVILWEVPLLAVISEMVHRYRSPQADVAQALDTLESKLVDFSALTAGLDMSRFHLMDFGTRRRFSREVQETIVKRLQQESWFVGTSNYDLARRLSLTPMGTQAHEWFQAHQQISPDLANSQRAALAAWLEEYPDQLGIALTDCITMDAFLRDFGVEFASRYQGLRHDSGDPVEWGEKAIAHYEKLEIDPQSKTLVFSDNLDLRKAVELYRHFSSRVQLSFGIGTRLTCDIPQVKPLNIVIKLVECNGKPVAKLSDSPGKTICHDKAFVRALRKAFDLPHIKKASEGHHHHHH | soluble
MGSDKIHHHHHHMIIRAGYNIAFQCFQETPINLLLSVHPSRAQHVIGEHVIKFSPDVPSHDFTDMFGNVCTRIVAPAGRIDISNDFLIEDTGLPDEVAPGAREIPVAELPDEVMVYLLGSRYCDTDKLATLAWSMFGGIPSGWQRVQAIVDYVHNHITFGYQFARNDRTASEGHAEQIGVCRDFAHLAVTLCRCMNIPARYCTGYLGDIGVPQDPAPMDFSAWFEVYLDGRWYTFDARHNHPRIGRIVIARGRDAADVAISTSFGTANLLNFEVITHEVTDQAAVTDARLQKVA | not soluble
MVSAGGVVLKGDPPEVLVVSLRGGRVVTLPKGQVEPGERYPETAVREVREETGVEASVLAPLGRVRYYFTVHEPEGPVTVSKEVHYFLMRHLGGTPRPQLTEVEDAFFLPASEALERLSYPNEREMLKRALLRLRARAKKG | soluble
MIGGSGRFLVNLESLNGVESIGNLTKHRTAPVVLKTSTGYLVRYVPVISGEALAHAYQASLVDIAKKEGLPVGNLSSQYEFIKFSTDEALKIEGIKEPKDYNDARRFEVEVMLKDVIADVGGFMYAGSAPVRRTSRIKLGYMIPALRGDEIPAQLEAQFHVRFSNKPVKGSQAIFNVEVSSALYTFSFELDEDLIAVPSTVGEKVKGEEELERQKARRVDSAIKALYSLLAGNFGGKRSRFLPSMKLMSLVVVKTDFPFIPEPGHDDSYIKTTVMRLEKAKSVLNGNVAKVYVINNEGIEVGEGATVLSSVEDLVAKLKEK | not soluble
MHPLLRRLDLNLLLVFDALYRHRNVGTAASELAISASAFSHALGRLRQGLDDELFLRQGNRMQPTQRAEHLAAAVAAALRALGEGLEEWRPFVPGQSQRTFVFAATDYTAFALLPPLMNRLQHSAPGVRLRLVNAERKLSVEALASGRIDFALGYDEEHERLPEGIQAHDWFADRYVVVARRDHPRLAGAPTLEGYLAERHAVVTPWNEDSGVIDRLLARSGLRREVAVQLPTVLAALFLAGSTDFLLTAPRHAARALAEAAGLALYPAPFDIPPYVLRLYSHVQHVGRDAHAWMIGQLKGLDISRTG | soluble
MNTLIPISEQTVGQETVQTVNARDLHAFLEVKTSFKDWIIRRIQDCKFKEGYDFCSFLSESSGGRPSKEYHITLDMAKHLSMIERNDKGHEARQYFNFLFDNMSVLCLLSNQVPQKHLKYTAGRLPKQSLLRTLKALTHYMLVAYKWLVGCGYAIQYPRGESVTTDCVPCF | soluble
